From patent publication US20260015316

System: ONECUT2 (OC2) HOX domain
Assay: SPR
Conditions: OC2 HOX fragment; DNA probe sequence not given

Substance: PEG10 promoter OC2 binding motif probe
- Kd: 1 nM
